From patent US20200369764A1 (INNATE PHARMA, published 2020)
Blank lines part the entries; values can stand above or below the molecule they belong to.

Assays:
Human Siglec-7 (human) = Human Siglec-7 (human) (UniProt Q9Y286); assay: flow cytometry, fresh purified human NK cells (CD3-/CD56+), isotype control plot
Human Siglec-9 [1] = molecular target: T1, Human Siglec-9 (human, UniProt Q9Y336 18-463); assay: as above
T1 construct: on transfected CHO cells, YTS Siglec-9* cells, or native on primary NK cells and moDC (see assay); also called huSiglec-9; CD329
T1 sequence (Q9Y336 18-463): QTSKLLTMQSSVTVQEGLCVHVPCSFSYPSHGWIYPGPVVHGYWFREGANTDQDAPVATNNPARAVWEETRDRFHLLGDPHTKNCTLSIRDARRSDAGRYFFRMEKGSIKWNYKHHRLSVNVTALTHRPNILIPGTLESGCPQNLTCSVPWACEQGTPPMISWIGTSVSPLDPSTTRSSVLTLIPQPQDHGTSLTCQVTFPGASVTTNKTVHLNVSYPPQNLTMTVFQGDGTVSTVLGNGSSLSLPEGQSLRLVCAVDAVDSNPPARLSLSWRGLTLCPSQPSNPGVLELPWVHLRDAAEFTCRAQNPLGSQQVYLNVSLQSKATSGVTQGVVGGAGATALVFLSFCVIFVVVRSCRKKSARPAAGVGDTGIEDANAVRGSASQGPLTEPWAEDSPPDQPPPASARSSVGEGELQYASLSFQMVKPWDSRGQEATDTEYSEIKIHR

Human Siglec-9 [2] = molecular target: T1, Human Siglec-9; assay: flow cytometry titration on moDC, neuraminidase-treated against untreated
Procedure: moDC were desialylated for 2 hours with 25 mU neuraminidase (Roche Diagnostics).
Binding on moDCs and neuraminidase treated moDCs was tested in a titration experiment by flow cytometry. Cells were incubated 1h in Staining Buffer (SB) with primary antibodies at 10 μg/ml and a series of dilution of 1:10. They were washed two times with SB, then incubated 30 min with a Goat F(ab′)² Anti-Human IgG (Fc) PE (Jackson ImmunoResearch), and washed twice with SB.

Human Siglec-7 (human), sequence (Q9Y286 19-467): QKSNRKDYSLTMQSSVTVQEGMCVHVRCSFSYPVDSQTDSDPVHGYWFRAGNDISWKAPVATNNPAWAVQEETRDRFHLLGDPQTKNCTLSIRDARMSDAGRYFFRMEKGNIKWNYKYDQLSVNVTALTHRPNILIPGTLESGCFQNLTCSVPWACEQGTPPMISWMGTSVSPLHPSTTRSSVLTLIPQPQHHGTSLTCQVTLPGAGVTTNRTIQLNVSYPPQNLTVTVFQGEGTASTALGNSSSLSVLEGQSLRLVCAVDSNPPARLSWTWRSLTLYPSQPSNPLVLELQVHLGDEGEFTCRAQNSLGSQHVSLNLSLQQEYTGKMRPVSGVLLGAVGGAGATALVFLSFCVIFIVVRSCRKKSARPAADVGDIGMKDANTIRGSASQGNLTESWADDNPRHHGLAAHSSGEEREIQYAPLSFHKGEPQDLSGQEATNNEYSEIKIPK

% of NK cells in Q1 (APC positive, PE negative) (Human Siglec-7 (human)): 0.975%
% of NK cells in Q2 (APC positive and PE positive) (Human Siglec-7 (human)): 0.34%
Molecule: Isotype control - APC (antibody)

% of NK cells in Q2 (APC positive and PE positive) (Human Siglec-9 [1]): 0.34%
% of NK cells in Q3 (PE positive, APC negative) (Human Siglec-9 [1]): 2.54%
Molecule: Isotype control - PE (antibody)

fold enhancement of EC50 on moDC after neuraminidase treatment (Human Siglec-9 [2]): 10 fold
B1: mAbA (antibody, V domains shown)
VH: QVQLQQPGAELVKPGSPVKLSCKASYFTFTSYWMHWVRQRPGQGLEWIGEINPSNGHTNYNEKFESKATLTVDRSSSTAYMQLSSLTSEDSAVFYCANGVESYDFDDALDYWGQGTSVTVSS
VL: DIQMTQTTSSLSASLGDRVTISCRASQDINNYLNWYQQKPDGTIKLLIYYTSRLHSGVPSRFSGSGSGTDYSLTINNLEQEDIATYFCQQGNTLPFTFGGGTKLEIK
notes: chimeric human IgG1, heavy chain N297Q (Kabat EU numbering)

fold enhancement of EC50 on moDC after neuraminidase treatment (Human Siglec-9 [2]): 10 fold
B2: mAbD (antibody, V domains shown)
VH: QIQLVQSGPELKKPGETVKISCKASGYTFTDYSMHWVKQAPGKGLKWMGWIITETGEPTYADDFRGRFAFSLETSANTAYLQINNLKNEDTATYFCARDFDGYWGQGTTLTVSS
VL: DILMTQSPASLSASVGETVTITCRASENIYSYLAWYQQKRGKSPQFLVYNAKTLTEGVPSRFRGSGSGTQFSLKINSLQPEDFGTYYCQHHYGFPWTFGGGTKLEIK
notes: as for B1

fold enhancement of EC50 on moDC after neuraminidase treatment (Human Siglec-9 [2]): 10 fold
B3: mAbC (antibody, V domains shown)
VH: QIQLVQSGPELKKPGETVKISCKASGYTFTNYEMNWVKEAPGKGLKWMGWINTYTGESTYADDFKGRFAFSLETSASTVYLQINNLKDEDVATYFCVRDDYGRSYGFAYWGQGTLVTVSA
VL: NIVLTQSPASLTVSLGQRANISCRASESVDSYGNSFMHWYQQKPGQPPKLLIYLASKLESGVPARFSGSGSRTDFTLTIDPVETDDAATYYCHQNNEDPPWTFGGGTKLEIK
notes: as for B1
